We go through 2 substances from article PMC10058639.

Experiment [1] has as its target recombinant truncated oyster intraflagellar transport protein 74-like protein (roIFT) (Crassostrea gigas (Pacific oyster)). Description: ELISA.
Experiment [2] addresses recombinant truncated oyster tumor necrosis factor (roTNF) (Crassostrea gigas (Pacific oyster)). Description: ELISA. For orientation: In an ELISA, binding on a coated surface is turned into a signal by an enzyme label.

For “P protein of HuNoV GI.1, recombinant, purified (domain or fragment)”, the P/N (OD450 of sample over negative control) amounted to 6.97 in experiment [1] and 5.88 in experiment [2].

Take “P protein of HuNoV GII.4, recombinant, purified (domain or fragment)”: the results for the P/N (OD450 of sample over negative control) in experiment [1] and in experiment [2] were 3.95 and 5.33, respectively.
